Experimental data published in doi:10.1101/2021.09.24.461537 (bioRxiv, 2021).

Key:
Test in all cases: ITC
[1] = biological target: Drosophila Su(H) (98-523) WT (Drosophila) (UniProt P28159)
[2] = biological target: mouse Rbpj (53-474) K195E (mouse, UniProt P31266 53-474, K195E)
[3] = biological target: mouse Rbpj (53-474) E89G (mouse, UniProt P31266 53-474, E89G)
[4] = biological target: mouse Rbpj (53-474) WT (mouse, UniProt P31266 53-474)
Chain of mouse Rbpj (53-474) WT (P31266 53-474): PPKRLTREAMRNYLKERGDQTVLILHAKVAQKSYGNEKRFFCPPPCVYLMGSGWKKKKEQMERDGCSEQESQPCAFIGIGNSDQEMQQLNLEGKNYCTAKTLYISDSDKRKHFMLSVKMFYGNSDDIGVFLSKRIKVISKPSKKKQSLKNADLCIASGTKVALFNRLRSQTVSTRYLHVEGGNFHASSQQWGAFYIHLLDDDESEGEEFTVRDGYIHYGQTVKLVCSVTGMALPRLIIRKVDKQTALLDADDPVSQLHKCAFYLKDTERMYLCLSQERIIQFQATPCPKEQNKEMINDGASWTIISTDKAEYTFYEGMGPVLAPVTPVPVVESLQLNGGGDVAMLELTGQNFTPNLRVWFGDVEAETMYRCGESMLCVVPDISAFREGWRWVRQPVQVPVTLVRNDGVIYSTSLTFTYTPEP

Chain of mouse Rbpj (53-474) K195E (P31266 53-474 K195E): as the sequence (P31266 53-474) above, with K143E counted along it
Chain of mouse Rbpj (53-474) E89G (P31266 53-474 E89G): as the sequence (P31266 53-474) above, with E37G counted along it

## Drosophila Notch RAM domain peptide (residues 1763-1790)
[1]
  Kd: 187 nM

## VLLSRKRRRQHGQLWFPEGFKVSEASKK [Notch1 RAM domain peptide (human Notch1 residues 1754-1781)]
[2]
  Kd: ~20 nM
[3]
  Kd: ~20 nM
[4]
  Kd: ~20 nM

B1: SHARP residues 2776-2833 (domain or fragment)
chain: RASANENSRFHPGSMPVIDDRPADAGSGAGLRVNTSEGVVLLSYSGQKTEGPQRISAK
[2]
  Kd: 21 nM
[3]
  Kd: ~5 nM
[4]
  Kd: ~5 nM
